Source: article PMC6120343 (Nature, 2018)
Changes are numbered by the printed parent chain. Names and notes keep the numbering of the source.

Key:
SEC = target: the molecule itself; experiment: SEC
[1] = target: the molecule itself; experiment: cryo-EM 2D class averages
[2] = target: the molecule itself; experiment: assembly and coassembly seen by negative stain electron microscopy
[3] = target: DRP1 E116R mutant, full length (human, UniProt O00429-3 1-710, E116R); experiment: as above

B1: DRP1 G362D, disease-associated mutant, full length (enzyme)
chain: MEALIPVINKLQDVFNTVGADIIQLPQIVVVGTQSSGKSSVLESLVGRDLLPRGTGIVTRRPLILQLVHVSQEDKRKTTGEENGVEAEEWGKFLHTKNKLYTDFDEIRQEIENETERISGNNKGVSPEPIHLKIFSPNVVNLTLVDLPGMTKVPVGDQPKDIELQIRELILRFISNPNSIILAVTAANTDMATSEALKISREVDPDGRRTLAVITKLDLMDAGTDAMDVLMGRVIPVKLGIIGVVNRSQLDINNKKSVTDSIRDEYAFLQKKYPSLANRNGTKYLARTLNRLLMHHIRDCLPELKTRINVLAAQYQSLLNSYGEPVDDKSATLLQLITKFATEYCNTIEGTAKYIETSELCDGARICYIFHETFGRTLESVDPLGGLNTIDILTAIRNATGPRPALFVPEVSFELLVKRQIKRLEEPSLRCVELVHEEMQRIIQHCSNYSTQELLRFPKLHDAIVEVVTCLLRKRLPVTNEMVHNLVAIELAYINTKHPDFADACGLMNNNIEEQRRNRLARELPSAVSRDKLIQDSRRETKNVASGGGGVGDGVQEPTTGNWRGMLKTSKAEELLAEEKSKPIPIMPASPQKGHAVNLLDVPVPVARKLSAREQRDCEVIERLIKSYFLIVRKNIQDSVPKAVMHFLVNHVKDTLQSELVGQLYKSSLLDDLLTESEDMAQRRKEAADMLKALQGASQIIAEIRETHLW
For B1, the “stoichiometry N” value (SEC) was 2 and the “stoichiometry N” value [1] was 24 chains (12 dimers).

B2: DRP1 S611D phosphomimetic mutant, full length (enzyme)
chain: B1 chain with D362G, S611D
B2: binds [2].

B3: MID49_(126-454), soluble truncation of Mitochondrial Dynamics 49 without the N-terminal transmembrane anchor (domain or fragment)
chain: TLQERLLAFERDRVTIPAAQVALAKQLAGDIALELQAYFRSKFPELPFGAFVPGGPLYDGLQAGAADHVRLLVPLVLEPGLWSLVPGVDTVARDPRCWAVRRTQLEFCPRGSSPWDRFLVGGYLSSRVLLELLRKALAASVNWPAIGSLLGCLIRPSMASEELLLEVQHERLELTVAVLVAVPGVDADDRLLLAWPLEGLAGNLWLQDLYPVEAARLRALDDHDAGTRRRLLLLLCAVCRGCSALGQLGRGHLTQVVLRLGEDNVDWTEEALGERFLQALELLIGSLEQASLPCHFNPSVNLFSSLREEEIDDIGYALYSGLQEPEGLL
B3: binds [3].
